How the values were obtained:
MALT1-C464A (bio-tagged) = molecular target: T1, MALT1-C464A (bio-tagged) (human, UniProt Q9UDY8 1-824); experiment: co-IP (bio-IP, immunoblot)
T1 construct: also called C464A mutant; C464 mutant
T1 sequence (looked up): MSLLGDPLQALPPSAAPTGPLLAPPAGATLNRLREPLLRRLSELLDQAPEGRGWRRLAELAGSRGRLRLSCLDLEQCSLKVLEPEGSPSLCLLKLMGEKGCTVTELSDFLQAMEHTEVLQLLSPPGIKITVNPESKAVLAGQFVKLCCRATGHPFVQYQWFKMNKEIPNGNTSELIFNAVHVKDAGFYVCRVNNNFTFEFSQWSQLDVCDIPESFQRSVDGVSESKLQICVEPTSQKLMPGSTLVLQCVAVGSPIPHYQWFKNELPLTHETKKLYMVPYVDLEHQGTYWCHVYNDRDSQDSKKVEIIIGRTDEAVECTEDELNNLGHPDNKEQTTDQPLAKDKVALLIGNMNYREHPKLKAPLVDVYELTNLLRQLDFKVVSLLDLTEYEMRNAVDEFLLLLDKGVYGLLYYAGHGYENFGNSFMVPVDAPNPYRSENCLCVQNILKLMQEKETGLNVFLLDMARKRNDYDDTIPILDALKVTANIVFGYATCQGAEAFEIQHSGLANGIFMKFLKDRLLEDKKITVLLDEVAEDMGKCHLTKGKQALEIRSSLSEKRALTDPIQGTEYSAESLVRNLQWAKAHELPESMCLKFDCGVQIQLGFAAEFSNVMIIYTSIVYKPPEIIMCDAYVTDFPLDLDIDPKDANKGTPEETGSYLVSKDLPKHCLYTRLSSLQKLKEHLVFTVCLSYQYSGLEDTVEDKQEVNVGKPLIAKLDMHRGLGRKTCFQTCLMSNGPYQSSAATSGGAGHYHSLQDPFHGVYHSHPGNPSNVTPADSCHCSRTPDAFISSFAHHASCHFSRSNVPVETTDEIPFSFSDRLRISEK

[1] = molecular target: T2, p76 fragment of MALT1 (Avi-tagged expression construct) (human, UniProt Q9UDY8 150-824, Avi-tag biotinylated in vivo by co-expressed BirA); experiment: bio-IP from HEK293T cells, anti-BCL10 immunoblot
T2 construct: domain: p76 cleavage fragment; Lacks the N-terminal death domain; also called MALT1 p76; 76 kDa C-terminal fragment
T2 sequence (looked up): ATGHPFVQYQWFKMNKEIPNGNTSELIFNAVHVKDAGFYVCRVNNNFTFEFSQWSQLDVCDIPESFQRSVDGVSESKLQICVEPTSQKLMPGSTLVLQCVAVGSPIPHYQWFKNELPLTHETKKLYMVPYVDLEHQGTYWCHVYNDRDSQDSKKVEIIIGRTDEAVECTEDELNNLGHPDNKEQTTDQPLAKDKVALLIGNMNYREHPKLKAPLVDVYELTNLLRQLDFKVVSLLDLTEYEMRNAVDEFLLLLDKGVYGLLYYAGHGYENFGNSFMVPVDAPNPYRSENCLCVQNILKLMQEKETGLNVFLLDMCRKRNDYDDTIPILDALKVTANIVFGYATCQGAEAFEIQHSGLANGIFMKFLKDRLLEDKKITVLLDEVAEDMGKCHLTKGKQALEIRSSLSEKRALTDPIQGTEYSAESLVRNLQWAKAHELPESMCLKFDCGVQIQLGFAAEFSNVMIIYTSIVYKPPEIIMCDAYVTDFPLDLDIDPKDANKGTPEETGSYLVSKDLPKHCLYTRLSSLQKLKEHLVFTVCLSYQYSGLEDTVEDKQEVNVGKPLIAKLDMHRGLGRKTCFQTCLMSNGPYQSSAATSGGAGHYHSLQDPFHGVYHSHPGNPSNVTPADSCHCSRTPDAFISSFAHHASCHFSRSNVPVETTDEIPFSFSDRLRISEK
From the text: FIG. 5: p76 activates NFκB via TRAF6. […] Panel B) TRAF6 mediates NFκB signaling by p76. Top: NFκB-reporter assays of HEK293T cells transiently expressing MALT1, p76 and mutants or MALT1-C. Bottom: MALT1, p76 or MALT1-C, transiently expressed in HEK293T cells, were purified via bio-IPs and immunoblotted with anti-MALT1 (to show equal expression), anti-TRAF6 and anti-BCL10. Panel C) p76 induces polyubiquitination of IKKγ. Immunoblot analysis of bio-IP and IKKγ-IP of 293T cells transfected with pcD-F-IKKγ and pcd-HA-Ub in combination with indicated Avi-tagged MALT1 constructs. Panel D) BCL10 is not involved in NFκB signaling by p76. NFκB reporter assays of HEK-293T cells transfected with siRNA duplexes against MALT1, BCL10 or GFP (as control) followed by transient transfection with p76. The expression levels were determined by immunoblot with anti-MALT1 and anti-BCL10. NFκB-dependent luciferase activity […] is shown as fold induction of vector-transfected cells and represents the mean+/−S.D. of three independent experiments.

binding result (MALT1-C464A (bio-tagged)): binds | binding result [1]: no binding
B1: BCL10 (other, UniProt O95999 1-233, looked up)
chain: MEPTAPSLTEEDLTEVKKDALENLRVYLCEKIIAERHFDHLRAKKILSREDTEEISCRTSSRKRAGKLLDYLQENPKGLDTLVESIRREKTQNFLIQKITDEVLKLRNIKLEHLKGLKCSSCEPFPDGATNNLSRSNSDESNFSEKLRASTVMYHPEGESSTTPFFSTNSSLNLPVLEVGRTENTIFSSTTLPRPGDPGAPPLPPDLQLEEEGTCANSSEMFLPLRSRTVSRQ
notes: Co-precipitated from lysates of human cell lines

Reference: patent US8309523 (VIB VZW, dated 2012)
